System: sprouting from wild-type, TFΔCT and PAR-2-deficient aortas
Test: ex vivo angiogenesis assay (aortic ring sprouting in Matrigel)
Assay type: cell-based, mouse
Details: wild-type and TFΔCT aortas, EGM without serum, day 4; growth factors 20 ng/ml, VIIa 50 nM (FIG. 2c)
Description: Angiogenesis assays. The ex vivo angiogenesis assay was adopted from the rat aortic sprouting model described by Masson et al. Biol. Proced. […] Thoracic aortas from 8-11 week old wild-type, TFΔCT, PAR-2-deficient, and TFΔCT/PAR-2-deficient mice of either sex were embedded in Matrigel, and overlaid with EGM supplemented with 5% serum, growth factors, or inhibitors at the following concentrations: VEGF, bFGF, and PDGF: 20 ng/ml; hirudin: 500 nM, VIIai: […], NAPc2: […], NAP5: 1 μM, VIIa: 50 nM. In most cases, the number of aortic sprouts was determined at day 3 and 4 without knowledge of the genotype. Aortic ring RNA was isolated by Trizol (Invitrogen) extraction using standard procedures, digested with DNAaseI, followed by RT-PCR for β-actin and TF. […] Tests used 2 different virus doses, referred to as high (1.1×10^10 virus particles/ml) and low (5×10^9 particles/ml). For confocal fluorescence microscopy, aortic pieces with a minimum of surrounding Matrigel were fixed with 4% paraformaldehyde and methanol, incubated with primary and secondary antibodies (24 hours each), and mounted in anti-fade medium (Vector laboratories). Alternatively, cryosections of OCT-embedded aortas were fixed with acetone and stained as described above.

B1: PDGF-BB: platelet-derived growth factor BB, activates PDGF receptor β (protein, UniProt P01127 82-190, looked up)
Platelet-derived growth …: SLGSLTIAEPAMIAECKTRTEVFEISRRLIDRTNANFLVWPPCVEVQRCSGCCNNRNVQCRPTQVQLRPVQVRKIEIVRKKPIFKKATVTLEDHLACKCETVAAARPVT
modifications: BB homodimer
- sprouting induced by single factor replacing serum: None of these factors promoted substantial sprouting

— patent publication US20070207154A1, “METHOD OF MODULATING VASCULARIZATION” (priority 2004, published 2007)
